Reference: publication PMC5943153 (Molecular microbiology, 2018)

T1: T25-HP1492 (Nfu) (Helicobacter pylori strain 26695, UniProt O26025 2-89)
T1 sequence (looked up): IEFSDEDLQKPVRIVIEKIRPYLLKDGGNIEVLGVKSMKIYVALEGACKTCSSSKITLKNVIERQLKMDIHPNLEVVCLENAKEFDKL

T2: HP0221-T25 (NifU) (Helicobacter pylori strain 26695, UniProt O25009 2-326)
T2 sequence (looked up): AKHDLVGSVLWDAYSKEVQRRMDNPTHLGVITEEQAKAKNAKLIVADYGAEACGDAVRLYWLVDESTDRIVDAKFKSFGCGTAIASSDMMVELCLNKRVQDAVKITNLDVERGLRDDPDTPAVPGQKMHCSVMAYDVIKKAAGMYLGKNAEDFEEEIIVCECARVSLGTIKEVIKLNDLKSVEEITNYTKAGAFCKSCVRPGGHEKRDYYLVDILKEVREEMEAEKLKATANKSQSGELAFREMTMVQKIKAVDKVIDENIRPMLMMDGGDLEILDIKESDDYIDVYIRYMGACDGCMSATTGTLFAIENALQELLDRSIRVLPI

T3: T25-HP0221 (NifU) (Helicobacter pylori strain 26695, UniProt O25009 2-326)
T3 sequence (looked up): T2 sequence (looked up)

B1: T18-HP0568 (natural protein, Helicobacter pylori strain 26695, UniProt O25292 2-255, looked up)
chain: PLELFEKVCKEVAPLTQMITLHVLGDPCKLKNLNHYLSTARRFSLKVDLVTSGVYLHDFETLLQDVIYQISISLDAGLDHRNKLNQHRYIQKILEFCRYKCEKNSEVFLNLRIQDSTLDKHQNLIKPFLESFECVSLEGLKTQGRARLFKKSFLNIQKTFKWPSLNAQNPLNQKSKIPYCYGLIKQIAILSNGVVVPCCMDTQANISLGDLNHTPLKDVLKSQKAMAIKTHFLKGEALELLCQNCSYPLIRYKK
B2: T18-HP0585 (natural protein, Helicobacter pylori strain 26695, UniProt O25307 2-218, looked up)
chain: KMGLKRAKTHQKAQQIKELLLKHYPNQTTELRHKNPYELLVATILSAQCTDARVNQITPKLFEKYPSVNDLALASLEEVKEIIKSVSYFNNKSKHLISMAQKVVRDFKGVIPSTQKELMSLDGVGQKTANVVLSVCFDANCIAVDTHVFRATHRLGLSNAKDPIKTEEELSDLFKDNLSKLHHALILFGRYTCKAKNPLCGACFLKEFCVSKASFKA
B3: T18-HP0132 (natural protein, Helicobacter pylori strain 26695, UniProt P56072 2-455, looked up)
chain: ASFSILSIFKIGVGPSSSHTIGPMEAGARFCESLKGILEQVVRVQITLHGSLALTGKGHLSDEAVLIGLHGIYANELEVTTKKALLHEALENKVLKLANQHHIPFDYAKDLIFDNKPLTRHQNALILKAFNSKNEVLKEETYYSVGGGFVYTEKELDNLSEEDGNESIAYDFSSAKELLELCQKHQKSIAEIVRLRENALKNHPDATMVKIYHAMLECYDNGANSKERYLPGSLKVTRLAPSIKTRLEKHPTSGKDPLALIDYISLYARAIAEENASGGKVVTAPTNGACAVVPSVLLYAKNHLFENLSQKAINDFLLTSAAIGYLYKKNASLSGAEAGCQAEIGVASSMAAGGLAHLCQATTQQVLIASEIAMEHHLGLTCDPVGGLVQIPCIERNVLGAIKAISASKLALEDEYKPKVSLDEVIATMYATGKDMNEKYKETSLGGLAKTLKC
B4: T18-HP1089 (natural protein, Helicobacter pylori strain 26695, UniProt O25721 2-778, looked up)
chain: NLEKLFLEKTPLFVFSSTRRLKHFYLEQGEGFLPNAMSMGNFFEQAFYIPNKKKIPNSARLILMIDTIKAIAKEKKSILEGLLLFENSFLGYLESTSFLFDLFDELSSACIKLNELSSKDIYLDYEKHLEVLEMIYDRYIKKLEGLGFYDKIMQEKPAILKEFFEHFSSIEWHLDGFMSVFERQCLLEAAELVPITLHLSCDKYNQKFLEFLNLKLETDCDYSIDFKTQKILSQTPKRQKIEPKLYANSSYLKQSALVLQTIEEYLQKDNDPNKMAIITPNADFLPFLKLLDKNNNLNFAMGLGAKNSPYYTELVKILEDLETSDLDLSGSALLDLENITLALLEQQSSKEKAPLKEAHSQIMHQYHLLKDTLKNYSLKDLLHLYLQEFEANFRLDDSSGGKIRVMDTLETRGMQFDKIVIVDFNETCVPSLKDCDLFLNSALRKSLNLPTLLDKKNLQKHYYYQLFKNSKEITLSYIESETSKASNMLLELNLHIEPIKDAYTLFAPSPLKDYQEEEIKAAIPKDFSFSASSLNAFLTCKRRFYYHYIKRFKESPKDENNSAVGSLLHELLKEAYEKDKTPHALEERLIWLLETRENITPKERLDTLVVLKKIQAFYKKERERFNAEITILDLEKSFETIIQGVIFKGRIDRIDKTADNEIILLDYKFKSDLKLDSMSKTQRGGLSPIEIAQISTDYQMAIYAFALKNLGYKEPIKAFFYDLRKGELLEEEELILQAKMDHLEFSLIPKLKQEIDFEKTLEVKDCEYCSFKDMCNR
B5: T18-HP0666 (natural protein, Helicobacter pylori strain 26695, UniProt O25377 2-433, looked up)
chain: NENINENIFEEVGDACVKCAKCVPGCTIYRIHKDEATSPRGFLDLMRLNAQNKLQLDTNLKHLLETCFLCTACVEICPFHLPIDTLIEKAREKIAQKHGIAWYKKSYFSLLKNRKKMDRVFSTAHFLAPCVFKQVGDSLEPRAVFKGLFKRFKKSALPPLNQKSFLQKHAEMKLLENPIQKVAIFIGCLSNYHYQQVGESLLYILEKLNIQAIIPKQECCSAPAYFTGDKDTTLFLVKKNIEWFESYLDKVDAIIVPEATCASMLINDYYKVFLGEKDKDLYVKRLEKITPKIYLASVFLEKHTPLKSLLEKIPKGKKETITYHNPCHAKKTLNAHKEVRNLLNLHYEIKEMPDNCCGFGGITMQTQKAGFSLKVGLLRAKEIIDTKAAILSAECGACHMQLNNALKSLDDPNTPPFLHPLELIAKALKSAE

Biological target: T1, T25-HP1492 (Nfu)
Test: two-hybrid

| Binder | growth OD595 in M63-maltose |
| --- | --- |
| B1 | 0.14 OD595 |
| B2 | 0.06 OD595 |
| B3 | 0.27 OD595 |

Biological target: T2, HP0221-T25 (NifU)
Test: two-hybrid

| Binder | growth OD595 in M63-maltose |
| --- | --- |
| B4 | 0.29 OD595 |
| B1 | 0.36 OD595 |
| B2 | 0.15 OD595 |
| B5 | 0.11 OD595 |
| B3 | 0.14 OD595 |

Biological target: T3, T25-HP0221 (NifU)
Test: two-hybrid

| Binder | growth OD595 in M63-maltose |
| --- | --- |
| B4 | 0.26 OD595 |
| B1 | 0.13 OD595 |
| B2 | 0.21 OD595 |
| B5 | 0.48 OD595 |
| B3 | 0.21 OD595 |
